Each block holds one molecule with its values, some of them ahead of it.
How the values were obtained:
TrkC ECD (Homo sapiens) = TrkC ECD (Homo sapiens) (UniProt Q16288); settings: cited from earlier work
[1] = target: TrkC-FL D5 (Homo sapiens) (UniProt Q16288); settings: cited from earlier work
[2] = target: truncated TrkC.T1 receptor; experiment: co-IP; HEK293 lysates expressing TrkC.T1, TrkC-FL or TrkC-Δ-ICD; immunoprecipitated with a pan-TrkC antibody; reducing and non-reducing SDS-PAGE; blotted with two anti-PDI mAbs or anti-pan-TrkC
[3] = target: T1, full-length TrkC (TrkC-FL) (UniProt Q16288 32-839); experiment: cell-based or functional assay
[4] = target: truncated TrkC.T1 receptor; experiment: flow cytometry on cells; quantitative flow cytometry on live, non-permeabilised cells stably transfected with TrkC-FL or TrkC.T1; ligand at saturating concentration; read-out is fold-increase in mean fluorescence intensity over controls; NT-3-biotin detected with avidin-fluorescein, PTP-sigma with anti-human secondary
[5] = target: T1, full-length TrkC (TrkC-FL); experiment: as above; settings: one partner purified
[6] = target: T1, full-length TrkC (TrkC-FL); experiment: cell-based or functional assay; remark: listed apart in the source

T1 sequence (Q16288 32-839): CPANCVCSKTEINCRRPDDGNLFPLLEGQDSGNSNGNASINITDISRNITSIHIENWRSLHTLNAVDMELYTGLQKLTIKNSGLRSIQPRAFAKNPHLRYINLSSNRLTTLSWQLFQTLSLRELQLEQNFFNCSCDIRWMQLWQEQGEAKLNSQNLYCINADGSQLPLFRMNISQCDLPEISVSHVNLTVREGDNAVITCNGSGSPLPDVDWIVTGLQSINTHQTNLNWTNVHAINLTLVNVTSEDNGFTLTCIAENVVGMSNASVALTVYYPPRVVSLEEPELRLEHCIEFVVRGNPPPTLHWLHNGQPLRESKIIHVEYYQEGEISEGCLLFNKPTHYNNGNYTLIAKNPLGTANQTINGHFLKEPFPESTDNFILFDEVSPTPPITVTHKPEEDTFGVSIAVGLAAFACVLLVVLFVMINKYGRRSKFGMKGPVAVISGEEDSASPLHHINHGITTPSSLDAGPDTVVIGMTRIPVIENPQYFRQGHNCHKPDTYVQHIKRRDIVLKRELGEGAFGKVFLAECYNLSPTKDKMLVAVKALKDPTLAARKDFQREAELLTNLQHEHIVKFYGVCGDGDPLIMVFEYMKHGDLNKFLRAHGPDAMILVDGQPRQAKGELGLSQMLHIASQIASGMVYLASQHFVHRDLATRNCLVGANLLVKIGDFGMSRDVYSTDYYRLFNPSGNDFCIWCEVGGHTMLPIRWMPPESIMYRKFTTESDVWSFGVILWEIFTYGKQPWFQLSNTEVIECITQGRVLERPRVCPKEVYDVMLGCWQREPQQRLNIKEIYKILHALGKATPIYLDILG
Sequence of truncated TrkC.T1 receptor (Q16288 32-839): as above
Sequence of TrkC ECD (Homo sapiens) (Q16288 32-429): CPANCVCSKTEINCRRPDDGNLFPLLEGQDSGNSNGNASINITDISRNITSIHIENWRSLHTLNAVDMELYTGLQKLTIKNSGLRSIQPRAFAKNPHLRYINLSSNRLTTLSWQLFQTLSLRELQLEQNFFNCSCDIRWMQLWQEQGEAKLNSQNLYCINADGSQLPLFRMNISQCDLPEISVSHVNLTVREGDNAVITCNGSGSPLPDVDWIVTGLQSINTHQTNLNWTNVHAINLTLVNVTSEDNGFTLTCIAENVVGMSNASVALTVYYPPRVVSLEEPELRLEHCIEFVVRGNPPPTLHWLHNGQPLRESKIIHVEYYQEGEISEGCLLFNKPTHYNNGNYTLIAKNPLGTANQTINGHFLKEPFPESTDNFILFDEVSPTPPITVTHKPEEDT
Sequence of TrkC-FL D5 (Homo sapiens) (Q16288 300-413): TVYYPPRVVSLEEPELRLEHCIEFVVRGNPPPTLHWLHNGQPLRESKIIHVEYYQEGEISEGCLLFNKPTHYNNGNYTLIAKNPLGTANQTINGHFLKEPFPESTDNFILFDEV

Molecule: PTP-sigma (from UniProt Q13332)
- Kd (TrkC ECD (Homo sapiens)): 9.3 nM

Molecule: NT-3 (from UniProt P20783)
- Kd [1]: 0.05 nM

- fold associated PDI (PDI/TrkC ratio) against TrkC-FL and TrkC-Δ-ICD [2]: 4 to 6 fold
Molecule: Protein Disulfide Isomerase (PDI) (from UniProt P07237 18-508) (enzyme)

- fold-increase in ligand binding over controls (mean fluorescence intensity) [4]: 7 fold
- fold-increase in ligand binding over controls (mean fluorescence intensity) [5]: 9 fold
B1: NT-3 (ligand, UniProt P20783 139-257, looked up)
chain: YAEHKSHRGEYSVCDSESLWVTDKSSAIDIRGHQVTVLGEIKTGNSPVKQYFYETRCKEARPVKNGCRGIDDKHWNSQCKTSQTYVRALTSENNKLVGWRWIRIDTSCVCALSRKIGRT
modifications: biotin (NT-3-biotin in the flow cytometry binding assay)
notes: neurotrophin-3, soluble growth factor; also called NT-3-biotin
- EC50 of bioactivity from dose-response curves (cell survival via TrkC-FL) [3]: 0.2 nM

- fold-increase in ligand binding over controls (mean fluorescence intensity) [4]: 3.7 fold
- fold-increase in ligand binding over controls (mean fluorescence intensity) [5]: 5 fold
B2: ectodomain of PTP-sigma (domain or fragment, UniProt Q13332 30-1282, looked up)
chain: EEPPRFIKEPKDQIGVSGGVASFVCQATGDPKPRVTWNKKGKKVNSQRFETIEFDESAGAVLRIQPLRTPRDENVYECVAQNSVGEITVHAKLTVLREDQLPSGFPNIDMGPQLKVVERTRTATMLCAASGNPDPEITWFKDFLPVDPSASNGRIKQLRSETFESTPIRGALQIESSEETDQGKYECVATNSAGVRYSSPANLYVRELREVRRVAPRFSILPMSHEIMPGGNVNITCVAVGSPMPYVKWMQGAEDLTPEDDMPVGRNVLELTDVKDSANYTCVAMSSLGVIEAVAQITVKSLPKAPGTPMVTENTATSITITWDSGNPDPVSYYVIEYKSKSQDGPYQIKEDITTTRYSIGGLSPNSEYEIWVSAVNSIGQGPPSESVVTRTGEQAPASAPRNVQARMLSATTMIVQWEEPVEPNGLIRGYRVYYTMEPEHPVGNWQKHNVDDSLLTTVGSLLEDETYTVRVLAFTSVGDGPLSDPIQVKTQQGVPGQPMNLRAEARSETSITLSWSPPRQESIIKYELLFREGDHGREVGRTFDPTTSYVVEDLKPNTEYAFRLAARSPQGLGAFTPVVRQRTLQSKPSAPPQDVKCVSVRSTAILVSWRPPPPETHNGALVGYSVRYRPLGSEDPEPKEVNGIPPTTTQILLEALEKWTQYRITTVAHTEVGPGPESSPVVVRTDEDVPSAPPRKVEAEALNATAIRVLWRSPAPGRQHGQIRGYQVHYVRMEGAEARGPPRIKDVMLADAQWETDDTAEYEMVITNLQPETAYSITVAAYTMKGDGARSKPKVVVTKGAVLGRPTLSVQQTPEGSLLARWEPPAGTAEDQVLGYRLQFGREDSTPLATLEFPPSEDRYTASGVHKGATYVFRLAARSRGGLGEEAAEVLSIPEDTPRGHPQILEAAGNASAGTVLLRWLPPVPAERNGAIVKYTVAVREAGALGPARETELPAAAEPGAENALTLQGLKPDTAYDLQVRAHTRRGPGPFSPPVRYRTFLRDQVSPKNFKVKMIMKTSVLLSWEFPDNYNSPTPYKIQYNGLTLDVDGRTTKKLITHLKPHTFYNFVLTNRGSSLGGLQQTVTAWTAFNLLNGKPSVAPKPDADGFIMVYLPDGQSPVPVQSYFIVMVPLRKSRGGQFLTPLGSPEDMDLEELIQDISRLQRRSLRHSRQLEVPRPYIAARFSVLPPTFHPGDQKQYGGFDNRGLEPGHRYVLFVLAVLQKSEPTFAASPFSDPFQLDNPDPQPIVDGEEG
notes: receptor-type tyrosine-protein phosphatase sigma, ectodomain; Probably a human Fc fusion, since it was detected with an anti-human secondary; also called PTP-sigma ectodomain; not shown: Fc (human)
- EC50 of bioactivity from dose-response curves (cell survival via TrkC-FL) [3]: 8 nM
- cell survival (MTT) of TrkC-FL-expressing cells in serum-free media, efficacy relative to 2 nM NT-3 (100%) [6]: 105 % of 2 nM NT-3
